This is an account of results in patent US10751422B2, “Antibody drug conjugates (ADC) that bind to FLT3 proteins” (AGENSYS, INC., priority 2015, dated 2020).

One data set has as its system Raji. Briefly: ADCC activity in vitro (CytoTox 96 LDH assay), positive control cell line Raji. In kind it is cell-based. The settings on record: effector normal human PBMC, E:T=100:1, 2.5 ug/mL, 4 hours.
A further data set deals with EOL-1. Description: EOL-1 cell growth with human FLT3 ligand and antibody (Cell Titer Glo, 5 days). In kind it is cell-based. The settings on record: 50, 10 or 5 ng/mL, no antibody. Here is the method: The ability of FLT3 antibodies (CHv62.21 and v62-1b37.1) to mediate the effect of human FLT3 ligand was evaluated using the human leukemia EOL-1 cell line, which endogenously expresses FLT3. Isotype control antibody (mLys-1c3.1) was also used. […] The next day, cells were treated with 50, 10 or 5 ng/mL of human FLT3 ligand (in 25 μl of complete media) and 10, 1, 0.1 and 0 μg/mL of test antibody (in 25 μl of complete media). Media alone was used as the untreated control. […] At the end of the incubation period, 100 μl of Cell Titer Glo was added to each well and incubated for 30 minutes, shaking, at room temperature.

A further data set addresses Flt3 protein (Homo sapiens, UniProt P36888). Briefly: Binding of hybridoma MAb to Flt3 protein and Flt3 expressing cells. The settings on record: recombinant and endogenous cells. From the text: MAbs to FLT3 were generated using VelocImmune® technology (Regeneron, Tarrytown, N.Y.) wherein genetically engineered mice make antibodies that have fully human variable regions and mouse constant regions. The MAb designated v62-1b21 (also known as AGS62.21) was generated after immunizing VelocImmune® mice with recombinant human FLT3 protein.

The next data set deals with RS-4-11. It is filed as cell-based, human.

Method for RS-4-11: Briefly, The RS-4-11 cells were seeded in 50 μl of complete media at a density of 3000 cells per well onto 96 well plates and placed in a tissue culture incubator at 37° C.; 5% CO2. The next day, the ADCs were prepared in complete media at 10 μg/mL and serially diluted 1:5 for a total of 9 points. […] At the end of the incubation period, 20 μl of Presto Blue was added to each well and incubated for 2 hours. The plates were read using a BioTek Synergy H4 plate reader using 540 Excitation and 590 Emission wavelengths and graphed using Graphpad Prism software.

Rituximab: the ADCC activity result in the data set with Raji is given as “confirms ADCC activity”.

B1: Human FLT3 ligand: human FLT3 ligand, purchased from R and D Systems (protein)
chain: TQDCSFQHSPISSDFAVKIRELSDYLLQDYPVTVASNLQDEELCGGLWRLVLAQRWMERLKTVAGSKMQGLLERVNTEIHFVTKCAFQPPPSCLRFVQTNISRLLQETSEQLVALKPWITRQNFSRCLELQCQPDSSTLPPPWSPRPLEATAPTAPQPP
With B1, the “effect of human FLT3 ligand alone on growth of EOL-1 cells” value in the data set on EOL-1 was “has no effect on growth”.

B2: v62-1b21: hybridoma FLT3 MAb from VelocImmune mice, fully human variable regions and mouse constant regions (antibody, V domains shown)
VH: EVQLVESGGGLVRPGGSLRLSCAASGFTFSGYSINWVRQAPGKGLEWVSSISSSSNYIYYADSVKGRFTISRDNAKNSLYLQMNSLRAEDTAVYYCAREGFIAGTTFDAFDIWGQGTMVTVSS
VL: DIQMTQSPSSLSASVGDRVTITCRASQGIRNDLGWYQQKPGKAPKRLIYAASSLQSGVPSRFSGSGSGTEFTLTISSLQPEDFATYYCLQHNGFPYTFGQGTKLEIKR
In the case of B2, the “binding to Flt3 protein and Flt3 expressing cells” value in the data set with Flt3 protein is “specifically binds to Flt3 protein and Flt3 expressing cells”.

B3: v62-1b21.1-AGL-0129-08 (conjugate)
VH: EVQLVESGGGLVRPGGSLRLSCAASGFTFSGYSINWVRQAPGKGLEWVSSISSSSNYIYYADSVKGRFTISRDNAKNSLYLQMNSLRAEDTAVYYCAREGFIAGTTFDAFDIWGQGTMVTVSS
VL: DIQMTQSPSSLSASVGDRVTITCRASQGIRNDLGWYQQKPGKAPKRLIYAASSLQSGVPSRFSGSGSGTEFTLTISSLQPEDFATYYCLQHNGFPYTFGQGTKLEIKR
Take B3: the cytotoxicity result in the data set on RS-4-11 is “can induce cytotoxicity”.
